Reference: patent US20250049953A1, “TREATMENT AND METHOD FOR INHIBITING LATE NA CURRENT” (THE TRUSTEES OF COLUMBIA UNIVERSITY IN THE CITY OF NEW YORK, priority 2022, published 2025)

Molecular target: T1, NaV1.5 IQ/AA mutant (Homo sapiens, UniProt Q14524, I1908A/Q1909A)
T1 construct: expressed in transfected cells; host or cells: HEK293 (ATCC CRL1573)
Assay: Multichannel recordings of late Na current, NaV1.5 IQ/AA mutant in HEK293 cells
Format: cell-based
From the text: The human NaV1.5 channel corresponds to clone M77235.1 (GenBank) and is subcloned into pGW 1 vector with HindIII and SaII. To facilitate construction of channelopathic mutations in the channel carboxy-terminus, we introduced silent mutations into NaV1.5 to introduce an NruI cutting site near the channel carboxy-terminus (5329-gtggccacg-5337 into 5329-gtCgcGacg-5337). Subsequently, we used overlap-extension PCR and ligated the PCR product into NaV1.5/pGW1 using NruI and XbaI restriction sites (mutations: E1784K, S1904L, IQ/AA, and Q1909R). For generating the ΔKPQ and IFM/IQM mutations, we used overlap-extension PCR and ligated in NaV1.5/pGW1 following restriction digest using KpnI and XbaI site. For generation of NaV1.5 truncations, we PCR amplified relevant segments using a forward primer upstream of the KpnI site and a reverse primer that truncated at the appropriate location (Δ1810 and Δ1885) and included an XbaI site and ligated into NaV1.5/pW1 vector. For LILA/WICW mutations, we used overlap extension and used restriction site AgeI and NheI for subsequent ligation. All segments subjected to PCR amplification were verified by sequencing. For generating human FHF2 splice-variants, we synthesized gene fragments and ligated into pcDNA3 using BamHI/EcoRI restriction sites. Human FHF1A and FHF1B were subcloned into ECFP-N3 vector, FHF2 splice variants and FHF3 were subcloned into pcDNA3. Truncations of the FHF1A amino-terminus (NT) were generated as fusion proteins with Venus fluorescent protein in the carboxy-terminus by encoding the relevant segments as noted in FIG. 12A in the forward PCR primer and the fluorophore as the template. Following PCR amplification, each fragment was ligated into pcDNA3 following restriction digest using NheI and XhoI enzymes. Plasmid encoding PKA catalytic subunit was constructed from pDONR222-PRKACA as described previously.
HEK293 cells (ATCC CRL1573) were cultured on glass coverslips in 60-mm dishes and transfected using the Ca^2+-phosphate method as previously described. For electrophysiology experiments, we co-transfected 4-8 μg of cDNA encoding the desired channel variant with 4 μg of YFP, and 1 μg of simian virus 40 T-antigen. For experiments evaluating effect of FHF, we transfected the relevant FHF variant at 1:1 ratio as the α-subunit. For experiments considering competition between FHF1/2 isoforms, we co-transfected FHF1B and FHF2S variants at specified ratios (ranging from 1:1 to 1:10). The culture media was replaced following 4 h of transfection. Electrophysiology recordings were then performed at room temperature 1-2 days following transfection.
Multichannel records were obtained in the on-cell configuration with either HEK293 cells or in aMVM as in our previous study. The pipette contained (in mM): 140 NaCl; 10 HEPES; 0.5 CaCl2; at 300 mOsm, adjusted with tetraethylammonium methanesulfonate; and pH 7.4 adjusted with tetraethylammonium hydroxide. To zero membrane potential, the bath contained (in mM): 132 K^+-glutamate; 5 KCl; 5 NaCl; 3 MgCl; 2 EGTA; 10 glucose; 20HEPES; at 300 mOsm adjusted with glucose; and pH 7.4 adjusted with NaOH. Data were acquired at room temperature using the integrating mode of an Axopatch 200A amplifier (Axon Instruments, Molecular Devices). Patch pipettes (3-10 MΩ) were pulled from ultra-thick-walled borosilicate glass (BF200-116-10; Sutter Instruments) using horizontal puller (P-97, Sutter Instruments), fire polished with a microforge (Narishige), and coated with Sylgard™ brand silicone elastomer (Dow Corning). Elementary currents were low-pass filtered at 2 kHz with a four-pole Bessel filter and digitized at 200 kHz with an ITC-18 unit (Instrutech), controlled by custom MATLAB software (Mathworks). For each pulse, we obtained P/8 leak pulses. Leak subtraction was performed using an automated algorithm which fit the kinetics of the leak current or the capacitive transient with convex optimization with L1 regularization. […]

FixR: minimal 39-amino-acid FHF1A amino-terminal effector domain, MAAAIASSLIRQKRQARESNSDRVSASKRRSSPSKDGRS (SEQ ID NO: 4), expressed as peptide
reduction in INa,L (FixR co-expressed, FIG. 5C): 10- to 15 fold | change in INa,L (co-expression with NaV1.5 IQ/AA in HEK293 cells): strong inhibition
